{
  "source": "paper PMC10203562",
  "assay_in_all_cases": "SPR; Biacore 8K+; anti-human IgG (Fc) amine-coupled to CM5 captures the antibody (10-25 RU); PCSK9 50 nM to 12 pM flowed over, 240 s association, 1800 s dissociation; Langmuir 1:1 global fit; duplicates",
  "key": {"[1]": {"target": "bococizumab variant SELW"}, "[2]": {"target": "bococizumab variant AEGQ"}, "[3]": {"target": "bococizumab variant AEPA"}, "[4]": {"target": "bococizumab variant SEGQ"}, "[5]": {"target": "bococizumab variant PEGQ"}, "[6]": {"target": "bococizumab variant PENW"}, "[7]": {"target": "bococizumab variant PELW"}, "[8]": {"target": "bococizumab"}, "[9]": {"target": "bococizumab variant PFGQ"}, "[10]": {"target": "bococizumab variant PERQ"}, "[11]": {"target": "bococizumab variant EDGM"}},
  "data": [
    {"substance": "proprotein convertase substilisin/kexin type 9 (PCSK9) (from UniProt Q8NBP7 153-692) (natural protein)", "values": [
      {"measurement": "Kd", "setting": "[1]", "value": 0.27, "unit": "nM"},
      {"measurement": "Kd", "setting": "[2]", "value": 0.19, "unit": "nM"},
      {"measurement": "Kd", "setting": "[3]", "value": 0.21, "unit": "nM"},
      {"measurement": "Kd", "setting": "[4]", "value": 0.35, "unit": "nM"},
      {"measurement": "Kd", "setting": "[5]", "value": 0.2, "unit": "nM"},
      {"measurement": "Kd", "setting": "[6]", "value": 0.24, "unit": "nM"},
      {"measurement": "Kd", "setting": "[7]", "value": 0.19, "unit": "nM"},
      {"measurement": "Kd", "setting": "[8]", "value": 0.25, "unit": "nM"},
      {"measurement": "Kd", "setting": "[9]", "value": 0.25, "unit": "nM"},
      {"measurement": "Kd", "setting": "[10]", "value": 0.25, "unit": "nM"},
      {"measurement": "Kd", "setting": "[11]", "value": 0.66, "unit": "nM"}
    ]}
  ]
}
